From patent US20130236459A1 (MERRIMACK PHARMACEUTICALS, published 2013)
Substitutions are numbered along the chain they refer to. Read-outs that look alike come from different tables or passages of the source.

Key:
[1] = molecular target: T1, ErbB3 (HER3), endogenous on human tumor cell lines (human, UniProt P21860 20-1342); test: cell-based or functional assay
[2] = molecular target: T2, IGF-1R (receptor for insulin-like growth factor 1), endogenous on human tumor cell lines (human, UniProt P08069 31-1367); test: cell-based or functional assay
[3] = molecular target: T1, ErbB3 (HER3), endogenous on human tumor …; test: cell-based or functional assay; remark: listed apart in the source
[4] = molecular target: T2, IGF-1R (receptor for insulin-like …); test: cell-based or functional assay; remark: listed apart in the source
[5] = molecular target: T2, IGF-1R (receptor for insulin-like …); test: cell-based or functional assay; remark: listed apart in the source
rat ErbB3-His = molecular target: T3, rat ErbB3-His (rat, UniProt Q62799 20-641, limits assumed); test: ELISA, species specific ErbB3-His coated plate
T3 construct: not shown: His tag, not further described for this species form
Procedure: (§1) 96-well Reacti-bind® plates (Pierce, Fisher cat. No. PI-I5041) are coated with 50 ul of species specific ErbB3-His or IGF-1R-His (R&D Systems, cat. No. 348-RB and 305-GR, respectively) at 2 ug/ml in PBS and incubated overnight at 4° C. The next day plates are washed with PBS+0.05% Tween-20 (PBS-T) and blocked for 1 hr. at room temperature with 100 ul of Protein-Free Blocking Buffer (Pierce). Plates are washed with PBS-T and 50 ul of each PBA is added in duplicate. Concentrations start at 500 nM (in PBS-T) and included ten additional two-fold dilutions and one blank (PBS-T only). Plates are incubated at room temperature for two hours and then washed with PBS-T. 50 ul of anti-Fc-HRP (Jackson Labs) is added at 1:40,000 in PBS-T, and plates are incubated in the dark for 1 hr. at room temperature. Plates are again washed with PBS-T and 100 ul of TMB substrate (Thermo Scientific, TMB and peroxide solution mixed 1:1) is added. The plates are incubated for 5-15 minutes at room temperature until a blue color develops, and the reaction is stopped with 100 ul of STOP solution (Cell Signaling Technology). The absorbance is read at 450 nm on a PerkinElmer Envision plate reader, and binding curves are generated using GraphPad Prism.

mouse ErbB3-His = molecular target: T4, mouse ErbB3-His (mouse, UniProt Q61526 20-641, limits assumed); test: ELISA, species specific ErbB3-His coated plate
T4 construct: not shown: His tag, not further described for this species form
Procedure: as §1

[6] = molecular target: T1, ErbB3 (HER3), endogenous on human tumor …; test: cell-based or functional assay; remark: listed apart in the source
[7] = molecular target: T2, IGF-1R (receptor for insulin-like …); test: cell-based or functional assay; remark: listed apart in the source
rat IGF-1R-His = molecular target: T5, rat IGF-1R-His (rat, UniProt P24062 31-936, limits assumed); test: ELISA, species specific IGF-1R-His coated plate
T5 construct: not shown: His tag, not further described
Procedure: as §1

mouse IGF-1R-His = molecular target: T6, mouse IGF-1R-His (mouse, UniProt Q60751 31-936, limits assumed); test: ELISA, species specific IGF-1R-His coated plate
T6 construct: not shown: His tag, not further described
Procedure: as §1

[8] = molecular target: T1, ErbB3 (HER3), endogenous on human tumor …; test: summary sentence of Example 3 (FACS on cells)
Procedure: (§2) 1×10⁵ MCF7 cells or 1×10⁵ ADRr cells are incubated at room temperature for 2 hours with each of ELI-7, ILE-10 and ILE-12, two anti-ErB3 antibodies and one anti-IGF-1R antibody at 2 uM, followed by 12 subsequent 3-fold dilutions. Then using goat anti-HSA-Alexa647 conjugated antibody as the detection antibody, cells are incubated on ice for 40 minutes. Cell binding dissociation constants (measures of binding affinities) of the antibodies on MCF7 and ADRr cells are assessed by FACS and apparent dissociation constants are determined for each protein. The following results were obtained (see also FIGS. 14A and 14B): […]

[9] = molecular target: T2, IGF-1R (receptor for insulin-like …); test: summary sentence of Example 3 (FACS on cells)
Procedure: as §2

[10] = molecular target: T1, ErbB3 (HER3), endogenous on human tumor …; test: cell-based or functional assay; remark: listed apart in the source
[11] = molecular target: T2, IGF-1R (receptor for insulin-like …); test: cell-based or functional assay; remark: listed apart in the source

T1 sequence (P21860 20-1342 limits assumed): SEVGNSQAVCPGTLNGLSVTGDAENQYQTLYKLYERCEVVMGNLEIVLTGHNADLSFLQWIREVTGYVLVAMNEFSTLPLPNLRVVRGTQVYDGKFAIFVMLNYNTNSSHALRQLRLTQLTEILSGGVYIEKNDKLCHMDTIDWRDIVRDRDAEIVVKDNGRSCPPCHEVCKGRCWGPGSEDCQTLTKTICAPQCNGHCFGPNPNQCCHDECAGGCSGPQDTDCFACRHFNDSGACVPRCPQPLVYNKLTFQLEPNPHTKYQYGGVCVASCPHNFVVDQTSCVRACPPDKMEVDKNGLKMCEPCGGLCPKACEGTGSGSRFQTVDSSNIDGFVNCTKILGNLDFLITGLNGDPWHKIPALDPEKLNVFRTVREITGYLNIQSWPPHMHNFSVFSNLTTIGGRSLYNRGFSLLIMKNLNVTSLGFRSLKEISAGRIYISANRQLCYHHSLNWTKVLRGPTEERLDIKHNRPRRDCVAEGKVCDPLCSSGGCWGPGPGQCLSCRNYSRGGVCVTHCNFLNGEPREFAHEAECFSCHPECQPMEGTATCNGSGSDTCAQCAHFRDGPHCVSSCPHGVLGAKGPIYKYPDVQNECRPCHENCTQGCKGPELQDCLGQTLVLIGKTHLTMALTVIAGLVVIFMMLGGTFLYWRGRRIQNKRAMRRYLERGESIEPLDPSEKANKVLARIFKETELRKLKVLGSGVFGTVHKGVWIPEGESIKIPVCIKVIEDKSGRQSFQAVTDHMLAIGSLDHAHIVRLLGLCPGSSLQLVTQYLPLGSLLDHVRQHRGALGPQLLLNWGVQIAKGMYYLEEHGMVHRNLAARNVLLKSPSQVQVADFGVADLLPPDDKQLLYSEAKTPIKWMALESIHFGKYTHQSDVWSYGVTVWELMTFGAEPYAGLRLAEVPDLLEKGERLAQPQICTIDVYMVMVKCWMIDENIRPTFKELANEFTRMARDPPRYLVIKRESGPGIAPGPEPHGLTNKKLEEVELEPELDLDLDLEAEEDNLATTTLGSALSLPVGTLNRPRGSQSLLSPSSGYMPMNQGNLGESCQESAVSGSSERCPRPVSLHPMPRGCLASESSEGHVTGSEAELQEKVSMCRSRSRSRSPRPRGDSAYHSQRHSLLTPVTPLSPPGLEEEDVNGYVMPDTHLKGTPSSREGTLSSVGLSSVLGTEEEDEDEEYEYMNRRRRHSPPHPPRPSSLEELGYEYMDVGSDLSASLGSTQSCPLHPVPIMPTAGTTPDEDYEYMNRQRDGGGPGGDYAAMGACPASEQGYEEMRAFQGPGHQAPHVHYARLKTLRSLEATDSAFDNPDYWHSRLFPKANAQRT
T2 sequence (P08069 31-1367): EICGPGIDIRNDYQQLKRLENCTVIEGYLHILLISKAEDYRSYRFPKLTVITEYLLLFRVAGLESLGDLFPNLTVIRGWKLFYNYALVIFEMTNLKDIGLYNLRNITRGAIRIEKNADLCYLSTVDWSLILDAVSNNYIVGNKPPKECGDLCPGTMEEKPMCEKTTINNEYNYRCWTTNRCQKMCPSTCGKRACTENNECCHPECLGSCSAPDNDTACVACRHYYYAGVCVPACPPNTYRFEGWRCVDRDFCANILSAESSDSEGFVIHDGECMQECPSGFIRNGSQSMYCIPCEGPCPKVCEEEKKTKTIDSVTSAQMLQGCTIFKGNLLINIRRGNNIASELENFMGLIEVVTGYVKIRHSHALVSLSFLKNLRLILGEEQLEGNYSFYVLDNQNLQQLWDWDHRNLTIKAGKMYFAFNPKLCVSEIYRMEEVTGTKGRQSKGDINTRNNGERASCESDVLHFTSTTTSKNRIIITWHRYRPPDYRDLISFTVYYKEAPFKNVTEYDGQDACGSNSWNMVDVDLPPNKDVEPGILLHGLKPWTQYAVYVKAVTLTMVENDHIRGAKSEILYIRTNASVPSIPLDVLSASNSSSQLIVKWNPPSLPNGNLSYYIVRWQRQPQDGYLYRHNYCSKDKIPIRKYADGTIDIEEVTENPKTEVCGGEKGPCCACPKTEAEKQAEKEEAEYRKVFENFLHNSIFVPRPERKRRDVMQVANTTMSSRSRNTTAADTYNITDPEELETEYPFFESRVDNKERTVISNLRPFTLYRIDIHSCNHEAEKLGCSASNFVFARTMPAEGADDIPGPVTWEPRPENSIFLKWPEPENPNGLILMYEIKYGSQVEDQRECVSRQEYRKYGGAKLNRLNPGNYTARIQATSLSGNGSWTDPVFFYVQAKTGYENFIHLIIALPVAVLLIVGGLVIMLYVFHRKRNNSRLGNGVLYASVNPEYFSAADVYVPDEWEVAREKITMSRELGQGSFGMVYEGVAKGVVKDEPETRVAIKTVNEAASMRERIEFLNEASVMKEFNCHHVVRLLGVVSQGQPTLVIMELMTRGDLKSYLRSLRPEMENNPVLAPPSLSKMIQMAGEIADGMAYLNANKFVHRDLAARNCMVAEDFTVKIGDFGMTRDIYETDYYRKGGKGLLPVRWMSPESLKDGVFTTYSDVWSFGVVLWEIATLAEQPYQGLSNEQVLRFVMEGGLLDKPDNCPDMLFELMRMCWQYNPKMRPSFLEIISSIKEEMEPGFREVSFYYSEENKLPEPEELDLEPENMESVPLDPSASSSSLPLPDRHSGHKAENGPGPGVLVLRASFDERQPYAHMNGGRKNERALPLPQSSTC
T5 sequence (P24062 31-936 limits assumed): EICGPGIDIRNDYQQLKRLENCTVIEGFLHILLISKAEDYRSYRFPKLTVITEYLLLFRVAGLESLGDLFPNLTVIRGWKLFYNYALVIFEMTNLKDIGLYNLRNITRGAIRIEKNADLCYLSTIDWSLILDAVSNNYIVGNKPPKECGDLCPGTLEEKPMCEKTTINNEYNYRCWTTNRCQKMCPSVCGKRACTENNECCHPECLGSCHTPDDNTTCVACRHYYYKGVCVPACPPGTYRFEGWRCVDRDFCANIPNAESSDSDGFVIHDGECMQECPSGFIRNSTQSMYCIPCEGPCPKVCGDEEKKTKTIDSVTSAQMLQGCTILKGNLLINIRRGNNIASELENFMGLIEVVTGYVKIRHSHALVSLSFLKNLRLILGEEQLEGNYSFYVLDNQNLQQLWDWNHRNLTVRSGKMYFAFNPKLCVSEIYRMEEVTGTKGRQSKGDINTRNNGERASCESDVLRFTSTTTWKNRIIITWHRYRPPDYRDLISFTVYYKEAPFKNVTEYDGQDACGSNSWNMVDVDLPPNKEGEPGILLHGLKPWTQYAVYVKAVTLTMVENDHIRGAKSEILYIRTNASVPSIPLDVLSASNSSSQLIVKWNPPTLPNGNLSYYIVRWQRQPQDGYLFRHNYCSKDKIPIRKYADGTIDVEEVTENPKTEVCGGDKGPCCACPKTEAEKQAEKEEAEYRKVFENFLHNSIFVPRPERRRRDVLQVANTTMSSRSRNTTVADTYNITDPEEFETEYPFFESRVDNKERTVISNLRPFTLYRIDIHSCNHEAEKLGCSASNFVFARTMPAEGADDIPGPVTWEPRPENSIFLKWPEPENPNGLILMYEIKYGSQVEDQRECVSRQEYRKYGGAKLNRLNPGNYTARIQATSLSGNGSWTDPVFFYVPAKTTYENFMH
T3 sequence (Q62799 20-641 limits assumed): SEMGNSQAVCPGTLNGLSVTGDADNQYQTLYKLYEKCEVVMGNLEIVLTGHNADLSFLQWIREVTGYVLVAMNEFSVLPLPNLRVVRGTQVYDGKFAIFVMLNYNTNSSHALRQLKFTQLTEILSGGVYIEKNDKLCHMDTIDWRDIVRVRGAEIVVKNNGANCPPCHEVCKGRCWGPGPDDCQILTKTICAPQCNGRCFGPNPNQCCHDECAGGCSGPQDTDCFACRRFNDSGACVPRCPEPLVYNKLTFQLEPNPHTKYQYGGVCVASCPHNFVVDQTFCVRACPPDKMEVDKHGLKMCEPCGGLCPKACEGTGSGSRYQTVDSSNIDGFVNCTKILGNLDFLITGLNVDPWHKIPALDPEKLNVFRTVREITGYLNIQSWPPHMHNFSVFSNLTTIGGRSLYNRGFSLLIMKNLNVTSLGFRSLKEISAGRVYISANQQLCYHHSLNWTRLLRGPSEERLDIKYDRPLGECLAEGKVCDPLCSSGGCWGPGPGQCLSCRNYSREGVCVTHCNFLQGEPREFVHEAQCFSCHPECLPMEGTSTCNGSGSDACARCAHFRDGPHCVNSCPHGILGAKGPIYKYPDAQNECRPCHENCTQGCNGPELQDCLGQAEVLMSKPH
T4 sequence (Q61526 20-641 limits assumed): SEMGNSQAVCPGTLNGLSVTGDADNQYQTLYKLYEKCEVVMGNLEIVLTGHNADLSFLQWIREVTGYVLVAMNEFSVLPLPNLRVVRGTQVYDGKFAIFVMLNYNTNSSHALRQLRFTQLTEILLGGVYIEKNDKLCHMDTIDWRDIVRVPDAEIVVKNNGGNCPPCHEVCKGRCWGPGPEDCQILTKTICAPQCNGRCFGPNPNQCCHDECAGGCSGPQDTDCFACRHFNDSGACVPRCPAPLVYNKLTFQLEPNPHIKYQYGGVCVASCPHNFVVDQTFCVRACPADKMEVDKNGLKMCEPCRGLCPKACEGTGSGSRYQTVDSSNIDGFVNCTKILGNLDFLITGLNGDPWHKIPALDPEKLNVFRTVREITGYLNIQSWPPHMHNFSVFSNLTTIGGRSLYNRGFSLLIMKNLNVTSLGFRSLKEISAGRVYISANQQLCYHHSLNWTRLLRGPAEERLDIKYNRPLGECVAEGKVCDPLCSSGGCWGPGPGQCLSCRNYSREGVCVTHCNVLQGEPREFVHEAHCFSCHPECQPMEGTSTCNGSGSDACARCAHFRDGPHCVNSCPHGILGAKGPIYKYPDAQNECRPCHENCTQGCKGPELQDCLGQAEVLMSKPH
T6 sequence (Q60751 31-936 limits assumed): as the sequence (P24062 31-936 limits assumed) above, with G271D, F629Y, L714M counted along it

B1: P4-G1-C8 (bispecific antibody, human IgG1, kappa)
heavy: not shown
light: DIQMTQSPSSLSASLGDRVTITCRASQGISSYLAWYQQKPGKAPKLLIYAKSTLQSGVPSRFSGSGSGTDFTLTISSLQPEDSATYYCQQYWTFPLTFGGGTKVEIKRTVAAPSVFIFPPSDEQLKSGTASVVCLLNNFYPREAKVQWKVDNALQSGNSQESVTEQDSKDSTYSLSSTLTLSKADYEKHKVYACEVTHQGLSSPVTKSFNRGEC
notes: IgG1-(scFv)2: anti-IGF-1R Fab, anti-ErbB3 scFv; also called P4-C8
pAKT IC50 (BxPC-3, HRG 20 ng/ml) [1]: 1.06e-10 M
pAKT IC50 (BxPC-3, HRG 200 ng/ml) [1]: 1.01e-10 M
pErbB3 IC50 (BxPC-3, HRG 20 ng/ml) [1]: 6.76e-11 M
pErbB3 IC50 (BxPC-3, HRG 200 ng/ml) [1]: 5.7e-11 M
pAKT IC50 (BxPC-3, IGF1 40 ng/ml) [2]: 3.8e-10 M
pAKT IC50 (BxPC-3, IGF1 400 ng/ml) [2]: 3.4e-10 M
pIGF1R IC50 (BxPC-3, IGF1 40 ng/ml) [2]: 1.1e-10 M
pIGF1R IC50 (BxPC-3, IGF1 400 ng/ml) [2]: 8.8e-11 M
pErbB3 % Inhibition (BxPC-3) [3]: 94%
pErbB3 IC50 (BxPC-3) [3]: 3.6e-11 M (inferred)
pIGF1R % Inhibition (BxPC-3) [4]: 91%
pIGF1R IC50 (BxPC-3) [4]: 1.3e-10 M (inferred)
% IGF1R Downregulation (A549, 24 h) [5]: 70%
% IGF1R Downregulation (BxPC-3, 24 h) [5]: 67%
binding result (rat ErbB3-His): binds
binding result (mouse ErbB3-His): binds
pErbB3 IC50 (BxPC-3) [6]: 5.8e-07 M (inferred)
pIGF1R IC50 (BxPC-3) [7]: 1.3e-09 M (inferred)
binding result (rat IGF-1R-His): binds
binding result (mouse IGF-1R-His): binds

B2: ILE-12 (bispecific antibody, human IgG2, kappa)
heavy: EVQLLESGGGLVQPGGSLRLSCAASGFTFSVYPMHWVRQAPGKGLEWVSSISSSGGATRYADSVKGRFTISRDNSKNTLYLQMNSLRAEDTAVYYCAKDFYDILTGNAFDIWGQGTMVTVSSASTKGPSVFPLAPCSRSTSESTAALGCLVKDYFPEPVTVSWNSGALTSGVHTFPAVLQSSGLYSLSSVVTVPSSNFGTQTYTCNVDHKPSNTKVDKTVERKCCVECPPCPAPPVAGPSVFLFPPKPKDTLMISRTPEVTCVVVDVSHEDPEVQFNWYVDGVEVHNAKTKPREEQFNSTFRVVSVLTVVHQDWLNGKEYKCKVSNKGLPAPIEKTISKTKGQPREPQVYTLPPSREEMTKNQVSLTCLVKGFYPSDIAVEWESNGQPENNYKTTPPMLDSDGSFFLYSKLTVDKSRWQQGNVFSCSVMHEALHNHYTQKSLSLSPGKGGGGSGGGGSGGGGSLQEVQLLESGGGLVQPGGSLRLSCAASGFTFSVYDMYWVRQAPGKGLEWVSYIYSSGGDTDYADSVKGRFTISRDNSKNTLYLQMNSLRAEDTATYYCARASTNSIYDAMDVWGQGTTVTVSSASTGGGGSGGGGSGGGGSDIQMTQSPSSVSASVGDRVTITCRASQDITNWLAWYQQKPGKAPTLLIYDASTLQSGVPSRFSGSGSGTDFTLTISSLQPEDFATYFCQQANGFPLTFGGGTKVEIK
light: B1 light with L11F, L15T, K51A, W92F
notes: anti-IGF-1R/anti-ErbB3 IgG2-(scFv)2: anti-IGF-1R IgG2 (module 5-7), anti-ErbB3 scFv (module 2-21)
binding result [8]: binds
binding result [9]: binds

B3: ELI-7 (bispecific antibody, human IgG2, lambda)
heavy: EVQLLESGGGLVQPGGSLRLSCAASGFTFSAYNMRWVRQAPGKGLEWVSVIYPSGGATRYADSVKGRFTISRDNSKNTLYLQMNSLRAEDTAVYYCARGYYYYGMDVWGQGTLVTVSSASTKGPSVFPLAPCSRSTSESTAALGCLVKDYFPEPVTVSWNSGALTSGVHTFPAVLQSSGLYSLSSVVTVPSSNFGTQTYTCNVDHKPSNTKVDKTVERKCCVECPPCPAPPVAGPSVFLFPPKPKDTLMISRTPEVTCVVVDVSHEDPEVQFNWYVDGVEVHNAKTKPREEQFNSTFRVVSVLTVVHQDWLNGKEYKCKVSNKGLPAPIEKTISKTKGQPREPQVYTLPPSREEMTKNQVSLTCLVKGFYPSDIAVEWESNGQPENNYKTTPPMLDSDGSFFLYSKLTVDKSRWQQGNVFSCSVMHEALHNHYTQKSLSLSPGKGGGGSGGGGSGGGGSLQEVQLLESGGGLVQPGGSLRLSCAASGFTFSVYPMHWVRQAPGKGLEWVSSISSSGGATRYADSVKGRFTISRDNSKNTLYLQMNSLRAEDTAVYYCAKDFYDILTGNAFDIWGQGTMVTVSSASTGGGGSGGGGSGGGGSDIQMTQSPSSFSASTGDRVTITCRASQGISSYLAWYQQKPGKAPKLLIYAASTLQSGVPSRFSGSGSGTDFTLTISSLQPEDSATYYCQQYFTFPLTFGGGTKVEIK
light: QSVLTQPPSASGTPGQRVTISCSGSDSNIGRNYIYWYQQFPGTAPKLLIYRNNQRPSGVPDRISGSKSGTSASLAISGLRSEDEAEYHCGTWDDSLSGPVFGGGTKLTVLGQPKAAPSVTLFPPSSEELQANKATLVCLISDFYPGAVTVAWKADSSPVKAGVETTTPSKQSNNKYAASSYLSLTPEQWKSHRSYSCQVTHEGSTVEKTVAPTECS
pErbB3 IC50 (BxPC-3, HRG+IGF1) [10]: 3.7 nM
pIGF-1R IC50 (BxPC-3, HRG+IGF1) [11]: 10 nM
